Assay [1] addresses T1, 细胞表面的人FcγRIIB (CD32B) (human, UniProt P31994 43-310).
T1 construct: whole, on cells; also called huFcγRIIB; CHO/IIB
T1 sequence (looked up): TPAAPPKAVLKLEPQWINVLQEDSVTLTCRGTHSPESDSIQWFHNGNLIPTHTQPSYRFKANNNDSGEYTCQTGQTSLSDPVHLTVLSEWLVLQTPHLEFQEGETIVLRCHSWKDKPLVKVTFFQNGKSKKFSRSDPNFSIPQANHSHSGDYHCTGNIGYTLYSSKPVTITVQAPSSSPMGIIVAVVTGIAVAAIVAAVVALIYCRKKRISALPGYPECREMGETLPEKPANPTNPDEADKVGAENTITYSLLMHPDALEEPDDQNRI
Put plainly: two-colour FACS on CHO cells with full-length FcγRIIB, after mouse IgG1 isotype control.

The target in assay [2] is T1, 细胞表面的人FcγRIIB (CD32B). The assay is described as follows: cell-based or functional assay.
The next assay has as its target T2, 人外周血白细胞上的huFcγRIIA (human, UniProt P12318 34-317).
T2 construct: whole, on cells; also called FcγRIIA同种型
T2 sequence (looked up): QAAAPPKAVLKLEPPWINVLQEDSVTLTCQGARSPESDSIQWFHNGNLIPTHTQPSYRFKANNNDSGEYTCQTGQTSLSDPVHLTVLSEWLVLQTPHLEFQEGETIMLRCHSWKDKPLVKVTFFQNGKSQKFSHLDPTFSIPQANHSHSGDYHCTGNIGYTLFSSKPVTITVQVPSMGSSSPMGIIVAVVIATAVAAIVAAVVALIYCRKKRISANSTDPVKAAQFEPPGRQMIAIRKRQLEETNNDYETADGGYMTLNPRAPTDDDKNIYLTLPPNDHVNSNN
The assay is described as follows: FACS on human peripheral blood leukocytes.

In assay [3] the target is T1, 细胞表面的人FcγRIIB (CD32B). The assay is described as follows: two-colour FACS on CHO cells with full-length FcγRIIB.
The target in assay [4] is T3, THP1单核细胞株上的CD32A (H131形式) (human, UniProt P12318 34-317).
T3 construct: whole, on cells; also called THP-I
T3 sequence (looked up): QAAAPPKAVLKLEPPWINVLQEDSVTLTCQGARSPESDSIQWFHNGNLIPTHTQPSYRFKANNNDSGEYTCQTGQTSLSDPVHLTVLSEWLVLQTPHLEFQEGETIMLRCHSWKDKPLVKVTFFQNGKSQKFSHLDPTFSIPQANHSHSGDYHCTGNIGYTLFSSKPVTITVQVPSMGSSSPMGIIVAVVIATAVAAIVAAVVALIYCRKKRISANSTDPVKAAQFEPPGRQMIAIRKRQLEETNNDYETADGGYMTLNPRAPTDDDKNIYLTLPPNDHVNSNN
Put plainly: FACS on THP-1 cells.

Assay [5] has as its target FcγRIIB (ELISA包被, 哺乳动物系统产生) (human) (UniProt P31994). Put plainly: direct ELISA, receptor-coated plate.
Another assay has as its target T4, 可溶性单体形式的人CD32A-R131 (human, UniProt P12318 34-217).
T4 construct: extracellular domain
T4 sequence (looked up): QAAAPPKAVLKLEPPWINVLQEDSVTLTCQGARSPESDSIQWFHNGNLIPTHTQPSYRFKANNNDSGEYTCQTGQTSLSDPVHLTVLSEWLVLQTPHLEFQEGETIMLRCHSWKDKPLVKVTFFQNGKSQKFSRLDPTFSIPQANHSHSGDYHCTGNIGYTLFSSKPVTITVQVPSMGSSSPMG
Put plainly: SPR (BIAcore 3000), antibody captured by goat anti-mouse F(ab′)2, soluble monomeric receptor injected. On the technique in general: In SPR one partner is held on a chip, and binding of the other changes the refractive index at the surface.

Assay [6] addresses T5, 可溶性单体形式的人CD32B (293H细胞中表达的可溶性细胞外结构域) (human, UniProt P31994 43-217).
T5 construct: extracellular domain; also called FcγRIIB
T5 sequence (looked up): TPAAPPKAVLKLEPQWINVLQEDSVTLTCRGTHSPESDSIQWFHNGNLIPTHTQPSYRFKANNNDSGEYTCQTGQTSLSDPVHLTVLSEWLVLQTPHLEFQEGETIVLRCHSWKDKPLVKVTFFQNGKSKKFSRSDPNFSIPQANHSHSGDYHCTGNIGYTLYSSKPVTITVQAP
Put plainly: SPR (BIAcore 3000), captured antibody, soluble monomeric receptor injected.

Some results are limits rather than exact numbers.

In the case of 聚集的生物素化人IgG (ligand), in the assay with 细胞表面的人FcγRIIB (CD32B) [1], the percent of cells labelled is 60 %.
In the case of 嵌合的抗CD32B抗体ch2B6 (antibody), the ADCC with 细胞表面的人FcγRIIB (CD32B) [2] was above 10 ng/mL.

B1: 由克隆2B6产生的小鼠单克隆抗体 (ATCC PTA-4591) (antibody)
heavy: QVQLQQPVTELVRPGASVMLSCKASDYPFTNYWIHWVKQRPGQGLEWIGVIDPSDTYPNYNKKFKGKATLTVVVSSSTAYMQLSSLTSDDSAVYYCARNGDSDYYSGMDYWGQGTSVTVSS
light: DILLTQSPAILSVSPGERVSFSCRTSQSIGTNIHWYQQRTNGFPRLLIKNVSESISGIPSRFSGSGSGTDFILSINSVESEDIADYYCQQSNTWPFTFGGGTKLEIK
notes: The entries may hold only the variable regions; also called 2B6抗体; m2B6
On to B1, for which the binding result with 人外周血白细胞上的huFcγRIIA is listed as “no binding”; in the assay with 细胞表面的人FcγRIIB (CD32B) [3] it was “binds”; in assay [4], “no binding”; with 可溶性单体形式的人CD32A-R131 it was “no binding (tested: 100nM可溶性受体)”; in assay [6], “binds”. In assay [5], the fold binding against the commercial antibodies AT10, FL18.26 and IV.3 was < 4.5 倍.

(Values after patent CN101001872A (MACROGENICS INC, dated 2007).)
